Reference: article PMC11697037, “Structural insights into the regulation of monomeric and dimeric apelin receptor” (Nature Communications, 2025)

How the values were obtained:
[1] = target: the molecule itself; test: cryo-EM structure; JN241-9-APJR complex, APJR and JN241-9 co-expressed in Hi5 cells (1:1 virus ratio), co-purified without added ligand; no Gi
[2] = target: T1, human WT APJR (apelin receptor), cryo-EM construct with a deletion of 50 residues from the C-terminus (human, UniProt P35414); test: cryo-EM structure; purified APJR (LMNG/CHS) incubated 1 h at 4 °C with 125 µg JN241(-Fc), SEC in 20 mM HEPES pH 7.5, 100 mM NaCl; no Gi; details: both partners purified
T1 construct: The N-terminal fusion is HA signal peptide, Flag tag, 10x His tag and BRIL, in pFastBac1; No cleavage of the fusion is mentioned; The protein is seen both as a monomer and as a homodimer; also called ProtA; ProtB; source: Trichoplusia ni (Hi5) insect cells, baculovirus; alone or co-expressed with Gi and/or JN241-9; purified (LMNG/CHS, Talon resin, SEC); not shown: His10, N-terminal, kept

[3] = target: T1, human WT APJR (apelin receptor), …; test: cryo-EM 2D classification; JN241-APJR complex with the Fc tag removed from the sdAb; data quality insufficient for a high-resolution structure; details: both partners purified

B1: human WT APJR (apelin receptor), cryo-EM construct with a deletion of 50 residues from the C-terminus (receptor, UniProt P35414 1-330, looked up)
chain: MEEGGDFDNYYGADNQSECEYTDWKSSGALIPAIYMLVFLLGTTGNGLVLWTVFRSSREKRRSADIFIASLAVADLTFVVTLPLWATYTYRDYDWPFGTFFCKLSSYLIFVNMYASVFCLTGLSFDRYLAIVRPVANARLRLRVSGAVATAVLWVLAALLAMPVMVLRTTGDLENTTKVQCYMDYSMVATVSSEWAWEVGLGVSSTTVGFVVPFTIMLTCYFFIAQTIAGHFRKERIEGLRKRRRLLSIIVVLVVTFALCWMPYHLVKTLYMLGSLLHWPCDFDLFLMNIFPYCTCISYVNSCLNPFLYAFFDPRFRQACTSMLCCGQSR
notes: The N-terminal fusion is HA signal peptide, Flag tag, 10x His tag and BRIL, in pFastBac1; No cleavage of the fusion is mentioned; The protein is seen both as a monomer and as a homodimer; also called ProtA; ProtB; source: Trichoplusia ni (Hi5) insect cells, baculovirus; alone or co-expressed with Gi and/or JN241-9; purified (LMNG/CHS, Talon resin, SEC); not shown: His10, N-terminal, kept
- binding result [1]: binds

B2: JN241-Fc, antagonistic single-domain antibody (sdAb) JN241 with Fc tag (VHH)
VHH: QVQLVESGGGSVQSGGSLTLSCAASGSTYSSHCMGWFRQAPGKEREGVALMTRSRGTSYADSVKGRFTISQDNTKNILYLQMNSLKPEDTAMYYCAAVPRAGIESGAYCKWNMKDSGSWGQGTQVTVSS
notes: the model of the JN241-APJR complex deposited here (PDB 8XQJ) holds this chain; also called antagonistic antibody; sdAb antagonist; source: provided by Structure Therapeutics
- binding result [2]: binds

B3: JN241 with the Fc tag removed (VHH)
VHH: B2 VHH
notes: as the VHH of m4; PDB 8XQJ holds the JN241 chain; also called sdAb; source: Fc tag removed
- binding result [3]: binds
